Data set [1] in a line: Pharmacokinetics of hGH in the dog after subcutaneous injection of nanoparticle and microparticle formulations (Example 12). The format is in vivo, beagle dogs. The conditions noted are these: 1 mg/kg hGH. As for the experimental part: (§1) Twelve naïve beagle dogs (weighing 7 to 10 kg) were treated with the following formulations:
The hGH IR corresponds to a solution of recombinant human growth hormone ([hGH]=4 mg/ml, pH=7.2, 330 mOsm).
Formulation 1 is prepared according to Example 2 and formulation 2 according to Example 7. The hGH is assayed by ELISA (DSL 10-1900 kit).
where: • Cmax is the maximum serum hGH concentration, • T>5 ng/ml is the time when the serum hGH concentration is greater than 5 ng/ml, • AUC represents the area under the curve of serum hGH concentration as a function of time, • RBA represents the bioavailability relative to an Immediate-Release formulation, • T50% auc represents the time required to release 50% of the total hGH released.

The nature of data set [2]: Pharmacokinetics of hGH in the dog after subcutaneous injection of a microparticle formulation (Example 13). The format is in vivo, beagle dogs. The settings on record: hGH IR 5 × 0.1 mg/kg per day, Formulation 3 0.5 mg/kg. As for the experimental part: as §1
The hGH IR corresponds to a solution of recombinant human growth hormone ([hGH]=4.1 mg/ml, pH=7.2, 330 mOsm). Formulation 3 is prepared according to Example 9.

On to “hGH IR: solution of recombinant human growth hormone, immediate-release reference”, for which, in data set [1], the “RBA (bioavailability relative to an Immediate-Release formulation)” value turned out to be 100%, the “T50% auc ± SD (time required to release 50% of the total hGH released)” value is 4 ± 1 h, the “T > 5 ng/ml ± SD (time when serum hGH concentration is greater than 5 ng/ml)” value worked out at 18 ± 3 h and the “apparent T½ (elimination)” value is on record as “about 2 hours”. In data set [1], the “median time to reach maximum serum concentration” value was found to be 2 h and the “time beyond which circulating hGH is no longer quantifiable” value was 24 h. The “AUC0-last ± SD” value in data set [1] (serum hGH) turned out to be 3209 ± 276 ng·h/mL. Moreover, the “Cmax ± SD (maximum serum hGH concentration)” value in data set [1] (serum, ELISA, 1 mg/kg) is 582 ± 155 ng/mL. In data set [2], the “AUC0-last ± SD” value came to 258 ± 26 ng·h/mL, the “Cmax ± SD (maximum serum hGH concentration)” value stood at 90 ± 24 ng/mL, the “RBA (bioavailability relative to an Immediate-Release formulation)” value amounted to 100% and the “T50% auc ± SD” value is listed as 2 ± 0.3 h. In addition, the “T > 1 ng/ml ± SD” value in data set [2] is listed as 39 h.
